Laboratory results reported in article PMC10381084.

Columns and labels:
[1] = molecular target: Dsh-GFP (Drosophila Dishevelled) (UniProt P51140); test: co-immunoprecipitation (IP α-Flag, IB α-GFP), western blot quantification; details: S2 cells, read off a plot
[2] = molecular target: Myc-Pk (Drosophila Prickle) (UniProt A1Z6W3); test: co-immunoprecipitation (IP α-Flag, IB α-Myc), western blot quantification; details: S2 cells; 6 independent replicates; parent: est. 18; read off a plot
[3] = 6–7 replicates, parent: est. 12

UniProt P51140, sequence (P51140 whole entry, looked up): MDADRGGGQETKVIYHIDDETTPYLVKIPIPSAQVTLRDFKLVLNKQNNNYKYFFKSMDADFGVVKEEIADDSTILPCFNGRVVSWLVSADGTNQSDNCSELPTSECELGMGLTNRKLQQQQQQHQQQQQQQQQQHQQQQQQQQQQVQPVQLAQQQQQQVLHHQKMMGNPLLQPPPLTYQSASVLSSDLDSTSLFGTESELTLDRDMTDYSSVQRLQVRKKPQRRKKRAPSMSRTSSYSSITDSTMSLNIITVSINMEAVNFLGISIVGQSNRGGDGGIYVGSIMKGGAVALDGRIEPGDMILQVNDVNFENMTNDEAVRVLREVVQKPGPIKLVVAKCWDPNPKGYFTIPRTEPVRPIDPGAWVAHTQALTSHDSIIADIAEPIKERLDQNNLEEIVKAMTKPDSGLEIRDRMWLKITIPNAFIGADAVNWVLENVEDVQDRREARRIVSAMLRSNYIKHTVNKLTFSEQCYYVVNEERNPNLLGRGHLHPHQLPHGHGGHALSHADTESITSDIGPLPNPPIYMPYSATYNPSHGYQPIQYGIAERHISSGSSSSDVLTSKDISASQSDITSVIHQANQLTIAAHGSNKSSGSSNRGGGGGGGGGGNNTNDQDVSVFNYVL
UniProt A1Z6W3, sequence (A1Z6W3 whole entry, looked up): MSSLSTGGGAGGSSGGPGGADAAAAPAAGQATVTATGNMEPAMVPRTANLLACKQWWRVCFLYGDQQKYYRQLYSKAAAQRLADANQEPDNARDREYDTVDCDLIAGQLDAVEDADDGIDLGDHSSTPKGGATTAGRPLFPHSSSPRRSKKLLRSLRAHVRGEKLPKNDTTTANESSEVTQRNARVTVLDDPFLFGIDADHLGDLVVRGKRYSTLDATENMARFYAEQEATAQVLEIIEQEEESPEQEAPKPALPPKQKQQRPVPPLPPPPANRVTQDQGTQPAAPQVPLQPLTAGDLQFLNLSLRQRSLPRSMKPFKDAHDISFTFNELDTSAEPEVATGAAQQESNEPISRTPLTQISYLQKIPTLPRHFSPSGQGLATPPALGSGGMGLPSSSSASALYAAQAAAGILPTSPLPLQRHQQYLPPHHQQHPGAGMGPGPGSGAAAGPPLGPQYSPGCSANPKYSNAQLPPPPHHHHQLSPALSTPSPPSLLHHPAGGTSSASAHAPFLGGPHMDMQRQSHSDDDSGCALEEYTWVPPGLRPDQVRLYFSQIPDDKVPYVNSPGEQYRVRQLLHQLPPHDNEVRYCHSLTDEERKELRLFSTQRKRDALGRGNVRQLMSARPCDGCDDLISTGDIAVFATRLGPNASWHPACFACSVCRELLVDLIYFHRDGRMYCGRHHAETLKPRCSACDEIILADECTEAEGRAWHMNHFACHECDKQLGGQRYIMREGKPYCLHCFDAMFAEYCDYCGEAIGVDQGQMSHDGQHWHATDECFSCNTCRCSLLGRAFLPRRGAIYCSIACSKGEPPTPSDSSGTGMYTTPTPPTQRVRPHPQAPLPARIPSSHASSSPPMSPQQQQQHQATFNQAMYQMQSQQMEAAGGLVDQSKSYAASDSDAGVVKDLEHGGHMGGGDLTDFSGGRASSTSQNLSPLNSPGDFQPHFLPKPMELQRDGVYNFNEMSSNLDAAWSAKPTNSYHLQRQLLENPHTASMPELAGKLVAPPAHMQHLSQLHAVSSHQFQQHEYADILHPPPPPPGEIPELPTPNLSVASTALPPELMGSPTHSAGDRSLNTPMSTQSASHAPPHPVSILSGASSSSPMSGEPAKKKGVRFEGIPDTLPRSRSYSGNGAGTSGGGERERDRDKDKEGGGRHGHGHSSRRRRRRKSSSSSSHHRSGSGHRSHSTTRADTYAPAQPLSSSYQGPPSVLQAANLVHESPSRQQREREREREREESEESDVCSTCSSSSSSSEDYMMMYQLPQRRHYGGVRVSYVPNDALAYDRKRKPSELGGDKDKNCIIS

response ([1]; 6 replicates, parent: est. 9.6) [a.u.]	response [2] [a.u.]	response [1, 3] [a.u.]	Substance
2.5			Vang-Flagx3 (Drosophila Van Gogh, wild type) V376A
	1	1.6	Vang-Flagx3 (Drosophila Van Gogh, wild type) F371A; K372A; Y374A
	2.5	2.5	Vang-Flagx3 (Drosophila Van Gogh, wild type) Y374A
